{
  "source": "patent US20200361992A1",
  "about": "(PROTAGONIST THERAPEUTICS, published 2020)",
  "binders": {"B1": {"name": "Compd ID 219 (peptide)", "peptide": "Isovaleryl-DTH[β3hF]PCIK([γGlu-Palmitoyl])[αMeF]C-NH2", "modifications": "disulfide 6-10", "SMILES": "CCCCCCCCCCCCCCCC(=O)N[C@@H](CCC(=O)NCCCC[C@@H]1NC(=O)[C@H]([C@@H](C)CC)NC(=O)[C@@H](NC(=O)[C@@H]2CCCN2C(=O)C[C@H](Cc2ccccc2)NC(=O)[C@H](Cc2c[nH]cn2)NC(=O)[C@@H](NC(=O)[C@H](CC(=O)O)NC(=O)CC(C)C)[C@@H](C)O)CSSC[C@@H](C(N)=O)NC(=O)[C@](C)(Cc2ccccc2)NC1=O)C(=O)O"}, "B2": {"name": "Compd ID 206 (peptide)", "peptide": "Isovaleryl-DTHFPCIK([γGlu-Palmitoyl])FEC-NH2", "modifications": "disulfide 6-11", "SMILES": "CCCCCCCCCCCCCCCC(=O)N[C@@H](CCC(=O)NCCCC[C@@H]1NC(=O)[C@H]([C@@H](C)CC)NC(=O)[C@@H](NC(=O)[C@@H]2CCCN2C(=O)[C@H](Cc2ccccc2)NC(=O)[C@H](Cc2c[nH]cn2)NC(=O)[C@@H](NC(=O)[C@H](CC(=O)O)NC(=O)CC(C)C)[C@@H](C)O)CSSC[C@@H](C(N)=O)NC(=O)[C@H](CCC(=O)O)NC(=O)[C@H](Cc2ccccc2)NC1=O)C(=O)O"}, "B3": {"name": "Compd ID 214 (peptide)", "peptide": "Isovaleryl-DTHFPCIK([γGlu-Palmitoyl])[β3hF]C-NH2", "modifications": "disulfide 6-10", "SMILES": "CCCCCCCCCCCCCCCC(=O)N[C@@H](CCC(=O)NCCCC[C@@H]1NC(=O)[C@H]([C@@H](C)CC)NC(=O)[C@@H](NC(=O)[C@@H]2CCCN2C(=O)[C@H](Cc2ccccc2)NC(=O)[C@H](Cc2c[nH]cn2)NC(=O)[C@@H](NC(=O)[C@H](CC(=O)O)NC(=O)CC(C)C)[C@@H](C)O)CSSC[C@@H](C(N)=O)NC(=O)C[C@H](Cc2ccccc2)NC1=O)C(=O)O"}, "B4": {"name": "Compd ID 217 (peptide)", "peptide": "Isovaleryl-DTH[αMeF]PCIK([γGlu-Palmitoyl])[αMeF]C-NH2", "modifications": "disulfide 6-10", "SMILES": "CCCCCCCCCCCCCCCC(=O)N[C@@H](CCC(=O)NCCCC[C@@H]1NC(=O)[C@H]([C@@H](C)CC)NC(=O)[C@@H](NC(=O)[C@@H]2CCCN2C(=O)[C@](C)(Cc2ccccc2)NC(=O)[C@H](Cc2c[nH]cn2)NC(=O)[C@@H](NC(=O)[C@H](CC(=O)O)NC(=O)CC(C)C)[C@@H](C)O)CSSC[C@@H](C(N)=O)NC(=O)[C@](C)(Cc2ccccc2)NC1=O)C(=O)O"}, "B5": {"name": "Compd ID 215 (peptide)", "peptide": "Isovaleryl-DTHFPCIK([γGlu-Palmitoyl])[αMeF]C-NH2", "modifications": "disulfide 6-10", "SMILES": "CCCCCCCCCCCCCCCC(=O)N[C@@H](CCC(=O)NCCCC[C@@H]1NC(=O)[C@H]([C@@H](C)CC)NC(=O)[C@@H](NC(=O)[C@@H]2CCCN2C(=O)[C@H](Cc2ccccc2)NC(=O)[C@H](Cc2c[nH]cn2)NC(=O)[C@@H](NC(=O)[C@H](CC(=O)O)NC(=O)CC(C)C)[C@@H](C)O)CSSC[C@@H](C(N)=O)NC(=O)[C@](C)(Cc2ccccc2)NC1=O)C(=O)O"}, "B6": {"name": "Compd ID 221 (peptide)", "peptide": "Isovaleryl-DTHF[NPC]CIK([γGlu-Palmitoyl])[αMeF]C-NH2", "modifications": "disulfide 6-10"}, "B7": {"name": "Compd ID 216 (peptide)", "peptide": "Isovaleryl-DTH[Dip]PCIK([γGlu-Palmitoyl])[αMeF]C-NH2", "modifications": "disulfide 6-10", "SMILES": "CCCCCCCCCCCCCCCC(=O)N[C@@H](CCC(=O)NCCCC[C@@H]1NC(=O)[C@H]([C@@H](C)CC)NC(=O)[C@@H](NC(=O)[C@@H]2CCCN2C(=O)[C@@H](NC(=O)[C@H](Cc2c[nH]cn2)NC(=O)[C@@H](NC(=O)[C@H](CC(=O)O)NC(=O)CC(C)C)[C@@H](C)O)C(c2ccccc2)c2ccccc2)CSSC[C@@H](C(N)=O)NC(=O)[C@](C)(Cc2ccccc2)NC1=O)C(=O)O"}, "B8": {"name": "Compd ID 224 (peptide)", "peptide": "Isovaleryl-DTHFPCI[dK]([PEG12-Palmitoyl])FKC-NH2", "modifications": "disulfide 6-11", "SMILES": "CCCCCCCCCCCCCCCC(=O)NCCOCCOCCOCCOCCOCCOCCOCCOCCOCCOCCOCCOCCC(=O)NCCCC[C@H]1NC(=O)[C@H]([C@@H](C)CC)NC(=O)[C@@H](NC(=O)[C@@H]2CCCN2C(=O)[C@H](Cc2ccccc2)NC(=O)[C@H](Cc2c[nH]cn2)NC(=O)[C@@H](NC(=O)[C@H](CC(=O)O)NC(=O)CC(C)C)[C@@H](C)O)CSSC[C@@H](C(N)=O)NC(=O)[C@H](CCCCN)NC(=O)[C@H](Cc2ccccc2)NC1=O"}, "B9": {"name": "Compd ID 207 (peptide)", "peptide": "Isovaleryl-DTHFPCIK([γGlu-Palmitoyl])FC-NH2", "modifications": "disulfide 6-10", "SMILES": "CCCCCCCCCCCCCCCC(=O)N[C@@H](CCC(=O)NCCCC[C@@H]1NC(=O)[C@H]([C@@H](C)CC)NC(=O)[C@@H](NC(=O)[C@@H]2CCCN2C(=O)[C@H](Cc2ccccc2)NC(=O)[C@H](Cc2c[nH]cn2)NC(=O)[C@@H](NC(=O)[C@H](CC(=O)O)NC(=O)CC(C)C)[C@@H](C)O)CSSC[C@@H](C(N)=O)NC(=O)[C@H](Cc2ccccc2)NC1=O)C(=O)O"}, "B10": {"name": "Compd ID 210 (peptide)", "peptide": "Isovaleryl-DTHFPCIK([γGlu-Palmitoyl])FCK-NH2", "modifications": "disulfide 6-10", "SMILES": "CCCCCCCCCCCCCCCC(=O)N[C@@H](CCC(=O)NCCCC[C@@H]1NC(=O)[C@H]([C@@H](C)CC)NC(=O)[C@@H](NC(=O)[C@@H]2CCCN2C(=O)[C@H](Cc2ccccc2)NC(=O)[C@H](Cc2c[nH]cn2)NC(=O)[C@@H](NC(=O)[C@H](CC(=O)O)NC(=O)CC(C)C)[C@@H](C)O)CSSC[C@@H](C(=O)N[C@@H](CCCCN)C(N)=O)NC(=O)[C@H](Cc2ccccc2)NC1=O)C(=O)O"}, "B11": {"name": "Compd ID 218 (peptide)", "peptide": "Isovaleryl-DTH[NMeF]PCIK([γGlu-Palmitoyl])[αMeF]C-NH2", "modifications": "disulfide 6-10", "SMILES": "CCCCCCCCCCCCCCCC(=O)N[C@@H](CCC(=O)NCCCC[C@@H]1NC(=O)[C@H]([C@@H](C)CC)NC(=O)[C@@H](NC(=O)[C@@H]2CCCN2C(=O)[C@H](Cc2ccccc2)N(C)C(=O)[C@H](Cc2c[nH]cn2)NC(=O)[C@@H](NC(=O)[C@H](CC(=O)O)NC(=O)CC(C)C)[C@@H](C)O)CSSC[C@@H](C(N)=O)NC(=O)[C@](C)(Cc2ccccc2)NC1=O)C(=O)O"}, "B12": {"name": "Compd ID 222 (peptide)", "peptide": "Isovaleryl-DTHFPCIK([PEG12-Palmitoyl])FC-NH2", "modifications": "disulfide 6-10", "SMILES": "CCCCCCCCCCCCCCCC(=O)NCCOCCOCCOCCOCCOCCOCCOCCOCCOCCOCCOCCOCCC(=O)NCCCC[C@@H]1NC(=O)[C@H]([C@@H](C)CC)NC(=O)[C@@H](NC(=O)[C@@H]2CCCN2C(=O)[C@H](Cc2ccccc2)NC(=O)[C@H](Cc2c[nH]cn2)NC(=O)[C@@H](NC(=O)[C@H](CC(=O)O)NC(=O)CC(C)C)[C@@H](C)O)CSSC[C@@H](C(N)=O)NC(=O)[C@H](Cc2ccccc2)NC1=O"}, "B13": {"name": "Compd ID 212 (peptide)", "peptide": "Isovaleryl-DTHFPCI[dK]([γGlu-Palmitoyl])[NMeF]GC-NH2", "modifications": "disulfide 6-11", "SMILES": "CCCCCCCCCCCCCCCC(=O)N[C@@H](CCC(=O)NCCCC[C@H]1NC(=O)[C@H]([C@@H](C)CC)NC(=O)[C@@H](NC(=O)[C@@H]2CCCN2C(=O)[C@H](Cc2ccccc2)NC(=O)[C@H](Cc2c[nH]cn2)NC(=O)[C@@H](NC(=O)[C@H](CC(=O)O)NC(=O)CC(C)C)[C@@H](C)O)CSSC[C@@H](C(N)=O)NC(=O)CNC(=O)[C@H](Cc2ccccc2)N(C)C1=O)C(=O)O"}, "B14": {"name": "Compd ID 220 (peptide)", "peptide": "Isovaleryl-DTHWPCIK([γGlu-Palmitoyl])[αMeF]C-NH2", "modifications": "disulfide 6-10", "SMILES": "CCCCCCCCCCCCCCCC(=O)N[C@@H](CCC(=O)NCCCC[C@@H]1NC(=O)[C@H]([C@@H](C)CC)NC(=O)[C@@H](NC(=O)[C@@H]2CCCN2C(=O)[C@H](Cc2c[nH]c3ccccc23)NC(=O)[C@H](Cc2c[nH]cn2)NC(=O)[C@@H](NC(=O)[C@H](CC(=O)O)NC(=O)CC(C)C)[C@@H](C)O)CSSC[C@@H](C(N)=O)NC(=O)[C@](C)(Cc2ccccc2)NC1=O)C(=O)O"}, "B15": {"name": "Compd ID 223 (peptide)", "peptide": "Isovaleryl-DTHFPCIK([γGlu-Palmitoyl])FC-NH2", "modifications": "disulfide 6-10", "SMILES": "CCCCCCCCCCCCCCCC(=O)N[C@@H](CCC(=O)NCCCC[C@@H]1NC(=O)[C@H]([C@@H](C)CC)NC(=O)[C@@H](NC(=O)[C@@H]2CCCN2C(=O)[C@H](Cc2ccccc2)NC(=O)[C@H](Cc2c[nH]cn2)NC(=O)[C@@H](NC(=O)[C@H](CC(=O)O)NC(=O)CC(C)C)[C@@H](C)O)CSSC[C@@H](C(N)=O)NC(=O)[C@H](Cc2ccccc2)NC1=O)C(=O)O"}},
  "note": "Starred links: 1 amine or outer side, 2 acyl side, 3 side chain; linkers in the order of their positions; H or OH if unused. Positions of bridges follow the written chain, without caps; N, C: chain ends. Non-standard residues stand in square brackets, D forms with d. Groups on a side chain read outwards from the residue. *: point of attachment. PEG12 = NCCOCCOCCOCCOCCOCCOCCOCCOCCOCCOCCOCCOCCC(=O)O; Dip = N[C@H](C(=O)O)C(c1ccccc1)c1ccccc1; NPC = nipecotic acid (L-nipecotic acid); γGlu = O=C(O)[C@H](CCC(=O)[*:2])N[*:1]; Palmitoyl = CCCCCCCCCCCCCCCC(=O)*; NMeF = CN[C@@H](Cc1ccccc1)C(=O)O; αMeF = C[C@](N)(Cc1ccccc1)C(=O)O; β3hF = N[C@H](CC(=O)O)Cc1ccccc1; Isovaleryl = CC(C)CC(=O)*",
  "data": [
    {"molecular_target": "T1, human ferroportin (SLC40A1) fused in frame with the GFP protein, stably expressed in HEK293 cells (human, UniProt Q9NP59 1-571)", "T1 sequence (looked up)": "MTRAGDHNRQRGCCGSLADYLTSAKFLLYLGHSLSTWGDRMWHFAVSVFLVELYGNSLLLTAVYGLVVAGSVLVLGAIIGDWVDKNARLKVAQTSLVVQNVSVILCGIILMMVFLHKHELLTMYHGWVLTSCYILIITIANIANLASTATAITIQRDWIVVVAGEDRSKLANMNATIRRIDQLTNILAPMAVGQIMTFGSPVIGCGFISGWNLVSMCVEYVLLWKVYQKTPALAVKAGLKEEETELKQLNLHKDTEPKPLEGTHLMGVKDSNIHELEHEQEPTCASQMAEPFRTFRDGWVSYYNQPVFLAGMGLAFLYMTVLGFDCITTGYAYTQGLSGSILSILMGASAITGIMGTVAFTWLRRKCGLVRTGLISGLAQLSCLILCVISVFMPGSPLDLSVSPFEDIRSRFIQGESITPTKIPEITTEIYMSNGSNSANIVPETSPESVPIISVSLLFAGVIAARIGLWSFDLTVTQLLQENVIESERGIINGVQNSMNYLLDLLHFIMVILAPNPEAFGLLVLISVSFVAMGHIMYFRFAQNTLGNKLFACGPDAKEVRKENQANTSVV", "experiment": "cell-based or functional assay", "units": {"FPN IC50": "nM"}, "values": [
      {"binder": "B1", "FPN IC50": 182},
      {"binder": "B2", "FPN IC50": 267},
      {"binder": "B3", "FPN IC50": 36},
      {"binder": "B4", "FPN IC50": "> 3000"},
      {"binder": "B5", "FPN IC50": 96},
      {"binder": "B6", "FPN IC50": 79},
      {"binder": "B7", "FPN IC50": 16},
      {"binder": "B8", "FPN IC50": 33},
      {"binder": "B9", "FPN IC50": 64},
      {"binder": "B10", "FPN IC50": 60},
      {"binder": "B11", "FPN IC50": "> 3000"},
      {"binder": "B12", "FPN IC50": 4},
      {"binder": "B13", "FPN IC50": 403},
      {"binder": "B14", "FPN IC50": 871},
      {"binder": "B15", "FPN IC50": 47}
    ]}
  ]
}
